Laboratory results as given in paper PMC12487890.

What was measured:
[1] = target: interferon-induced transmembrane protein 3 (IFITM3), human, untagged (UniProt Q01628); test: co-immunoprecipitation (anti-HA IP, anti-IFITM3 immunoblot), IFITM3/HA band ratio; conditions: mean of two co-IPs from independent transfections
[2] = target: interferon-induced transmembrane protein 3 (IFITM3), human, untagged (UniProt Q01628); test: proximity ligation assay (anti-IFITM3 and anti-HA, confocal microscopy); conditions: HEK293T cells transfected with pCMV-IFITM3 (0.50 μg) and pBJ-97ZANef-HA WT or mutant (0.25 μg); mean of 6 to 12 cells per condition; parent: 20,209
[3] = HEK293T cells cotransfected with pCMV-IFITM3 (0.50 μg) and pBJ-97ZA Nef-HA WT or mutant (0.25 μg), parent: 100
[4] = HEK293T cells cotransfected with pCMV-IFITM3 (0.50 μg) and pBJ-97ZANef-HA WT or mutant (0.25 μg)

Sequence of UniProt Q01628 (Q01628 whole entry): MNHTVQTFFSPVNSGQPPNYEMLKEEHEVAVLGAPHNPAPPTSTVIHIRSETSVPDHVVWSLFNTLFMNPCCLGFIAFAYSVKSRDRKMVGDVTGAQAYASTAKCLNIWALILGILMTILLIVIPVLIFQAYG

97ZA013 Nef-HA, wild type (HIV-1 clade C primary isolate) N163T; C164S
percent of parent [1, 3]: 217%

97ZA013 Nef-HA, wild type (HIV-1 clade C primary isolate) S152D; E153K
percent of parent [1, 3]: 42%

97ZA013 Nef-HA, wild type (HIV-1 clade C primary isolate) G2A
response (corrected total cell fluorescence) [2]: 3000 | percent of parent [1, 4]: 1%

97ZA013 Nef-HA, wild type (HIV-1 clade C primary isolate) R192F; R193H
percent of parent [1, 3]: 188%

97ZA013 Nef-HA, wild type (HIV-1 clade C primary isolate) M169V; Q171L
percent of parent [1, 3]: 244%

97ZA013 Nef-HA, wild type (HIV-1 clade C primary isolate) L165A; L166A
response (corrected total cell fluorescence) [2]: 12000 | percent of parent [1, 4]: 87%

97ZA013 Nef-HA, wild type (HIV-1 clade C primary isolate) R17A; R19A; R21A; R22A
response (corrected total cell fluorescence) [2]: 7580 | percent of parent [1, 4]: 16%

97ZA013 Nef-HA, wild type (HIV-1 clade C primary isolate) E153K
percent of parent [1, 3]: 73%

97ZA013 Nef-HA, wild type (HIV-1 clade C primary isolate) M20A
response (corrected total cell fluorescence) [2]: 17200 | percent of parent [1, 4]: 124%
